# From patent US20210188968A1 (AB2 BIO, published 2021)
# T1: recombinant human interleukin-18 (human, UniProt Q14116 37-193)
# T1 construct: Commercially available recombinant human IL-18; also called IL-18; free IL-18
# T1 sequence (looked up): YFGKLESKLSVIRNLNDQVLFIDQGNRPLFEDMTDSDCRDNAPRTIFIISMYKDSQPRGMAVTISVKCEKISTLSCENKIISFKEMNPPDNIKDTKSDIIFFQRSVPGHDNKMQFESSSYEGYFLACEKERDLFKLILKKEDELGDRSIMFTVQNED
# T2: IL-18/IL-18BP complex (human, UniProt Q14116 37-193)
# T2 construct: Non-covalent 1:1 complex; In the third screening step IL-18BP was linked to Luminex beads and then complexed to IL-18; also called IL-18 previously complexed to IL-18BP; complex IL-18-IL-18BP
# T2 sequence 1: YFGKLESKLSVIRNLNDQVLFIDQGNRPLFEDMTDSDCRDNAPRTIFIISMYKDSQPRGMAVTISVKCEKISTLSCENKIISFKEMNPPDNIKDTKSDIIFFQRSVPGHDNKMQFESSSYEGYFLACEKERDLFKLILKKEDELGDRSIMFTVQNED
# T2 sequence 2: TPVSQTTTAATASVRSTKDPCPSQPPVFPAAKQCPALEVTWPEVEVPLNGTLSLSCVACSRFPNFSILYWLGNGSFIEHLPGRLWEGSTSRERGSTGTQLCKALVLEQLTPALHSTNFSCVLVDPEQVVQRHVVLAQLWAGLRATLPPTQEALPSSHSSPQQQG
# B1: recombinant human IL-18 Binding Protein (r-hIL-18BP), isoform a (other)
# chain: TPVSQTTTAATASVRSTKDPCPSQPPVFPAAKQCPALEVTWPEVEVPLNGTLSLSCVACSRFPNFSILYWLGNGSFIEHLPGRLWEGSTSRERGSTGTQLCKALVLEQLTPALHSTNFSCVLVDPEQVVQRHVVLAQLWAGLRATLPPTQEALPSSHSSPQQQG
# notes: It was biotinylated in the second screening step and linked to Luminex beads in the third; also called human IL-18BP; IL-18BPa
# B2: Antibody 107C6 (antibody, V domains shown)
# VH: QIQLVQSGPELKKPGETVKLSCRASGYTFTNYGMNWVKQAPGKGLKWMGWINTYSGVPTYADDFKGQFAFSLETSAATAFLQINNLKDEDTATYFCAREGYSTTRSMDYWGQGTSVTVSS
# VL: DIVMSQSPSSLAVSAGEKVTMSCKSSQSLLDSRTRKNYLVWYQQKPGQSPKLLIYWASTRGSGVPDRFTGSGSGTDFTLTISSVQAEDLAVYYCKQSYNLRTFGGGTKLEIK
# notes: Mouse hybridoma monoclonal antibody; also called clone #107C6
# B3: Antibody 108F8 (antibody, V domains shown)
# VH: QIQLVQSGPDSKKPGETVKLSCRASGYTFTNYGMNWVKQAPGKGLKWMGWINTYSGVPTYADDFKGQFAFSLETSAATAFLQINNLKDEDTATYFCAREGYSTTRSMDYWGQGTSVTVSS
# VL: DIVMSQSPSSLAVSAGEKVTMSCKSSQSLLDSRTRKNYLVWYQQKPGQSPKLLIYWASTRGSGVPDRFTGSGSGTDFTLTISSVQAEDLAVYYCKQSYNLRTFGGGTKLEIK
# notes: Mouse hybridoma monoclonal antibody
# B4: Antibody 109A6 (antibody, V domains shown)
# VH: EVQLQQSGAELVKPGASVKLSCTASGFKIKDTYIHWVIQRPAQGLEWIGRIDPANGNTIYGSKFQGKATLTADTSSNTAYIHLSSLTSGDSAVYYCAGYVWFAYWGQGTLVTVSA
# VL: DVVMTQVPLSLPVSLGDQASISCRSSQRLVHSNGNTYLHWFLQKPGQSPKLLIYTVSNRFSGVPDRFSGSGSGTDFTLKISRVEAEDLGVYFCSQSTLVPWTFGGGTKLEIK
# notes: as for B3
# B5: Antibody 131B4-2 (antibody, V domains shown)
# VH: EVQLQQSGAELVKPGASVKLSCTASGFKIKDTYIHWLKQRPEQGLEWIGRIDPANGNTIYGSKFQGKATITADTSSNTAYIQLSSLTSGDTAVYFCAGYVWFAYWGQGTLVTVSA
# VL: DAVLTQTPLSLPVSLGDQASISCTSSQSLVHSNGNTYLHWYLQKPGQSPKLLIYKVSDRFSGVPDRFSGSGSGTDFTLMITRVEAEDLGVYFCSQSSLVPWTFGGGTKLEVK
# notes: Mouse monoclonal antibody obtained on clone dilution
# B6: Antibody 132H4 (antibody, V domains shown)
# VH: EVKLVESGGGLVKPGGSLKLSCAASGFTFSNYAMSWVRQNPAKRLEWVATISSGGANIYYPDSVKGRFIISRDNARNTLYLQMSSLRSEDTAMYYCARGDYFNHFWFAYWGQGTLVTVSA
# VL: DVLMTQTPLSLPVSLGDQASISCRSSQSIVHSNGNTYLEWYLQKPGQSPKFLIYKVSNRFSGVPDRFSGSGSGTDFTLKINRVEAEDLGIYYCFQGSHVPWTFGGGTKLEIK
# notes: as for B3
# Assays:
# [1] = target: T1, recombinant human interleukin-18; experiment: free IL-18 ELISA (IL-18BP-coated plate); 400 pg/mL IL-18 in PBS/5% BSA spiked with 0-10000 pg/mL IL-18BP
# Protocol: A description of the purification protocol is provided in section 6.6.2. Plates are incubated for a period of time at 4° C. and then stabilized with a blocking buffer containing bovine serum albumin or other appropriate blocking agents. Once the reaction is finished, microplates are sealed and stored at 4° C. until used for detection of free IL-18. Microplates can also be dried in a stabilizing solution allowing storage at room temperature and then be reconstituted by hydration when needed for assay.
# [2] = target: T1, recombinant human interleukin-18; experiment: competition in solution: 400 pg/ml IL-18 spiked with rising IL-18BP; remaining free IL-18 detected by ELISA with plate-bound IL-18BP as capture
# [3] = target: T1, recombinant human interleukin-18; experiment: Luminex, antibody on IL-18 beads
# Protocol: Following immunization, B cells were isolated from spleen and hybridized following standard hybridoma technology. […] The screening was performed in 3 sequential and selective steps: [1253] First step. […] [1254] Second step. […] For this, monoclonal antibodies were bound to Luminex beads carrying IL-18. […] [1255] Third step.
# [4] = target: T2, IL-18/IL-18BP complex; experiment: Luminex, third screening against first screening
# [5] = target: T2, IL-18/IL-18BP complex; experiment: Luminex, antibody on IL-18 presented by IL-18BP-linked beads
# [6] = target: T1, recombinant human interleukin-18; experiment: titration of antibody with a defined IL-18 molarity; KD from EC50 by Law of Mass Action
# Protocol: (§1) The respective KD values of each monoclonal antibody was calculated following titration of the antibodies with a defined IL-18 molarity and derived from the obtained EC₅₀ values with the Law of Mass Action (see above).
# [7] = target: T1, recombinant human interleukin-18; experiment: Luminex, biotinylated IL-18BP (competitor) on IL-18 beads pre-complexed with the antibody
# [8] = target: T1, recombinant human interleukin-18; experiment: titration of antibody with a defined IL-18 molarity; KD from EC50 by Law of Mass Action; mean
# Protocol: as §1
# [9] = target: T1, recombinant human interleukin-18; experiment: after clone dilution; method not detailed
Binder,molar ratio IL-18BP/IL-18 at which free IL-18 is near background [1] [fold],IC50 (read off the curve) [2] [pg/mL],Fluorescence intensity [3] [fluorescence intensity],fold inhibition of binding on IL-18 complexed to IL-18BP against binding on IL-18 [4] [fold],Fluorescence intensity [5] [fluorescence intensity],Kd [6] [pM],Fluorescence intensity of IL-18BP binding [7] [fluorescence intensity],Kd [8] [pM],binding result [9]
B1,~15,~2000,,,,,,,
B2,,,26200,> 500,33,< 2,1390,< 2,
B3,,,25100,> 500,45,< 2,1290,< 2,
B4,,,25800,> 500,33,10,913,10,
B5,,,,,,,,,binds
B6,,,23800,> 500,28,5,1490,5,
